# Positions count from the first letter of the chain named. Several values for one entry are separate records, joined by “and”; a condition that tells them apart may be missing. Identical values can stand only once.
# B1: 95 (antibody, V domains shown)
# VL: EIVMTQSPATLSVSPGERATLSCRASENIYRNLAWYQQKPGQSPRLLIYAATNLADGIPARFSGSGSGTEYTLTISSLQSEDFAVYYCQHFWGTPWTFGQGTKVEIK
# VH: QVQLVQSGSELKKPGASVKVSCKASGYTFTDYSMHWVRQAPGQGLEWMGWINTETGEPTYADDFKGRFVFSLDTSVSTAYLQISSLKAEDTAVYYCARIPLYYYGSRYWYFDVWGQGTTVTVSS
# modifications: constant regions without entry; synthetic humanized antibody light chain variable region sequence; synthetic humanized antibody heavy chain variable region sequence
# B2: 96 (antibody, V domains shown)
# VL: B1 VL
# VH: B1 VH with E46K
# modifications: constant regions without entry; synthetic humanized antibody light chain variable region sequence; synthetic humanized antibody heavy chain variable region sequence
# B3: 73 (antibody, V domains shown)
# VH: B1 VH with V2I, E46K
# VL: B1 VL
# modifications: synthetic humanized antibody heavy chain variable region sequence; synthetic humanized antibody light chain variable region sequence
# B4: 139 (antibody)
# VH: B1 VH with D62Q, D63G, K65T
# VL: DIQMTQSPSSLSASVGDRVTITCRASENIYRNLAWYQQKPGKAPKLLVYAATNLADGVPSRFSGSGSGTDYTLTISSLQPEDFATYYCQHFWGTPWTFGQGTKVEIK
# chain: ASTKGPSVFPLAPSSRSTSESTAALGCLVKDYFPEPVTVSWNSGALTSGVHTFPAVLQSSGLYSLSSVVTVPSSNFGTQTYTCNVDHKPSNTKVDKTVERKSCVECPPCPAPPAAAPSVFLFPPKPKDTLMISRTPEVTCVVVDVSHEDPEVQFNWYVDGVEVHNAKTKPREEQFNSTFRVVSVLTVVHQDWLNGKEYKCKVSNKGLPAPIEKTISKTKGQPREPQVYTLPPSREEMTKNQVSLTCLVKGFYPSDIAVEWESNGQPENNYKTTPPMLDSDGSFFLYSKLTVDKSRWQQGNVFSCSVMHEALHNHYTQKSLSLSPG
# modifications: synthetic humanized antibody heavy chain variable region sequence; synthetic humanized antibody light chain variable region sequence; synthetic antibody constant region sequence
# B5: 140 (antibody, V domains shown)
# VH: B1 VH with E46K, D62Q, D63G, K65T
# VL: B4 VL
# modifications: synthetic humanized antibody heavy chain variable region sequence; synthetic humanized antibody light chain variable region sequence
# B6: 138 (antibody, V domains shown)
# VH: B1 VH with V2I, E46K, D62Q, D63G, K65T
# VL: B4 VL
# modifications: synthetic humanized antibody heavy chain variable region sequence; synthetic humanized antibody light chain variable region sequence
# B7: 141 (antibody, V domains shown)
# VH: B1 VH
# VL: B4 VL
# modifications: synthetic humanized antibody heavy chain variable region sequence; synthetic humanized antibody light chain variable region sequence
# B8: 142 (antibody, V domains shown)
# VH: B1 VH with E46K
# VL: B4 VL
# modifications: synthetic humanized antibody heavy chain variable region sequence; synthetic humanized antibody light chain variable region sequence
# B9: 143 (antibody, V domains shown)
# VH: B1 VH with V2I, E46K
# VL: B4 VL
# modifications: synthetic humanized antibody heavy chain variable region sequence; synthetic humanized antibody light chain variable region sequence
# B10: 152 (antibody, V domains shown)
# VH: B1 VH with D62Q, D63G, K65T
# VL: B4 VL with V48L, P80S
# modifications: synthetic humanized antibody heavy chain variable region sequence; synthetic humanized antibody light chain variable region sequence
# B11: 153 (antibody, V domains shown)
# VH: B1 VH with E46K, D62Q, D63G, K65T
# VL: B4 VL with V48L, P80S
# modifications: synthetic humanized antibody heavy chain variable region sequence; synthetic humanized antibody light chain variable region sequence
# B12: 151 (antibody, V domains shown)
# VH: B1 VH with V2I, E46K, D62Q, D63G, K65T
# VL: B4 VL with V48L, P80S
# modifications: synthetic humanized antibody heavy chain variable region sequence; synthetic humanized antibody light chain variable region sequence
# B13: 154 (antibody, V domains shown)
# VH: B1 VH
# VL: B4 VL with V48L, P80S
# modifications: synthetic humanized antibody heavy chain variable region sequence; synthetic humanized antibody light chain variable region sequence
# Target: T1, human EphA4 (Homo sapiens, UniProt P54764)
# T1 construct: made in house; not restated for the human SEAP-His protein
# Experiment: Affinity of humanized antibodies by SPR (Biacore T200)
# Format: binding
# Conditions: human EphA4 extracellular region-SEAP-His; 1:1 binding model
# Description: The binding affinity of each anti-EphA4 monoclonal humanized antibody obtained in Example 16 for human EphA4 was determined by surface plasmon resonance (SPR) using Biacore T200 (GE Healthcare). First, for the assay of antibody A, a rat anti-mouse IgG1 antibody produced with a conventional method by immunizing rat with mouse IgG1 antibody was immobilized on sensor chip CM5. The immobilization of the rat anti-mouse IgG1 antibody on sensor chip CM5 was performed by the amine coupling method using N-hydroxysuccinimide (NHS) and N-ethyl-N′-(3-dimethylaminopropyl)carbodiimide hydrochloride (EDC). Ethanolamine was used in blocking (the sensor chip and the reagents for immobilization were all manufactured by GE Healthcare). The antibody was diluted with a buffer solution for immobilization (10 mM sodium acetate, pH 4.5) and immobilized on the sensor chip according to the protocol attached to Biacore T200. For the assay of each humanized monoclonal antibody, a protein A chip (GE Healthcare, 29-1383-03) was used. Antibody A or the humanized monoclonal antibody was diluted with a running buffer solution HBS-EP (GE Healthcare), injected onto only flow cell 2 for 120 seconds, and captured (captured amount: approximately 30 to 60 RU). Subsequently, human EphA4 extracellular region-SEAP-His protein serially diluted in the range of 50, 16.7, 5.6, 1.9, and 0.6 nM using HBS-EP was sequentially added from the lower toward higher concentration sides without regeneration operation. Binding reaction curves were sequentially observed at the time of the addition (association phase, for 120 sec) and after the completion of the addition (dissociation phase, for 900 sec). After the completion of each observation, the sensor chip was regenerated by the addition of 3 M MgCl2 (for 60 sec) or 10 mM Glycine-HCl pH 1.5 (for 30 sec). The obtained binding reaction curves were subjected to fitting analysis with 1:1 binding models using software BIA evaluation attached to the system to calculate the affinity (KD=kd/ka) for human EphA4 (Table 6).
# T1 sequence (P54764 20-547): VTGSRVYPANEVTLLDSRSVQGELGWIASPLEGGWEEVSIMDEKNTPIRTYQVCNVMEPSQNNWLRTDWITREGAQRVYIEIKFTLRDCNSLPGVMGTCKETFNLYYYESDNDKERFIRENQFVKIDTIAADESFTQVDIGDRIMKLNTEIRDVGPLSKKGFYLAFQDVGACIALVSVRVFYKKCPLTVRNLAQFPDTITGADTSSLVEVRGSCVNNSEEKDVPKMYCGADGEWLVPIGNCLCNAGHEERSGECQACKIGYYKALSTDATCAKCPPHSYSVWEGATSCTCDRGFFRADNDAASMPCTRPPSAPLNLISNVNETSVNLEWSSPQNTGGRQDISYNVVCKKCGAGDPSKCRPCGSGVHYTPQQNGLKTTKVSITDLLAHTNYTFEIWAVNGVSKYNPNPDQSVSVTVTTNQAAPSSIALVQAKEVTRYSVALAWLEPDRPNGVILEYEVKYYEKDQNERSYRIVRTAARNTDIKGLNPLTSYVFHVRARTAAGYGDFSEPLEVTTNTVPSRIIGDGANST
ka,kd,Molecule
300000 M⁻¹ s⁻¹,0.00031 s⁻¹,B1
270000 M⁻¹ s⁻¹,0.00031 s⁻¹,B2
290000 M⁻¹ s⁻¹,0.00027 s⁻¹,B3
370000 M⁻¹ s⁻¹,0.00053 s⁻¹,B4
320000 M⁻¹ s⁻¹,0.00043 s⁻¹,B5
330000 M⁻¹ s⁻¹ and 290000 M⁻¹ s⁻¹,0.00043 s⁻¹ and 0.00039 s⁻¹,B6
390000 M⁻¹ s⁻¹,0.00062 s⁻¹,B7
340000 M⁻¹ s⁻¹,0.0005 s⁻¹,B8
350000 M⁻¹ s⁻¹,0.00051 s⁻¹,B9
400000 M⁻¹ s⁻¹,0.00082 s⁻¹,B10
290000 M⁻¹ s⁻¹,0.0006 s⁻¹,B11
320000 M⁻¹ s⁻¹,0.00053 s⁻¹,B12
390000 M⁻¹ s⁻¹,0.00065 s⁻¹,B13

# Same assay, conditions: human EphA4 extracellular region-SEAP-His; KD=kd/ka
row,Kd,Molecule
1,1 nM,B1
2,1.1 nM,B2
3,0.93 nM,B3
4,1.4 nM,B4
5,1.4 nM,B5
6,1.3 nM and 1.4 nM,B6
7,1.6 nM,B7
8,1.5 nM,B8
9,1.5 nM,B9
10,2 nM,B10
11,2.1 nM,B11
12,1.7 nM,B12
13,2.2 nM,B13

# Target: T2, human EphA4 (binding to human Ephrin A5) (Homo sapiens, UniProt P54764)
# T2 construct: made in house; not restated for the human SEAP-His protein
# Experiment: Human EphA4-human ligand binding inhibition ELISA of humanized antibodies (biotinylated Ephrin A5-Fc)
# Conditions: biotinylated human Ephrin A5-Fc 0.7 nM
# Description: Each anti-EphA4 monoclonal humanized antibody obtained in Example 16 was evaluated for its inhibitory activity against the binding between human EphA4 and its human ligand according to the following steps. Each well of a 96-well plate (Nunc) was coated with an anti-alkaline phosphatase antibody (Thermo Fisher Scientific). After incubation overnight at 4° C., each well was blocked with 1% BlockAce (DS Pharma Biomedical) at room temperature for 1 hour. After washing with 0.05% Tween 20/PBS (Thermo Fisher Scientific) three times, the human EphA4 extracellular region-SEAP-His protein obtained by the method of Example 2 was added (final concentration: 10 nM) to each well and incubated at room temperature for 1 hour. After washing three times, a ligand and each serially diluted humanized antibody of antibody A (0, 0.003, 0.01, 0.03, 0.1, 0.3, 1, 3, 10, 30, 100, 300, 1000, and 3000 nM) were added to each well. The ligand used was biotinylated human Ephrin A5-Fc chimera (R&D Systems, final concentration: 0.7 nM). After incubation at room temperature for 1 hour and subsequent washing three times, horseradish peroxidase-labeled streptavidin (GE Healthcare) was added thereto and incubated at room temperature for 1 hour. After washing three times, a TMBZ (3,3′,5,5′-tetramethylbenzidine, Sigma-Aldrich) solution was added to each well and incubated at room temperature for 2 minutes. An equal amount of a reaction stopping solution (1N H2SO4, Wako Pure Chemical Industries) was added to each well. The absorbance at 450 nm was read using a microplate reader (PerkinElmer).
# T2 sequence (P54764 20-547): as above
row,IC50 [nM],Molecule
1,3.1,B1
2,3.7,B2
3,2.4,B3
4,3.3,B4
5,2.4,B5
6,2.9,B6
7,3,B7
8,3.7,B8
9,5.3,B9
10,2,B10
11,2.3,B11
12,2,B12
13,2.5,B13

# — patent publication US10428140B2, “Anti-EphA4 antibody” (EISAI R&D MANAGEMENT CO., LTD., priority 2015, dated 2019)
